How the values were obtained:
[1] = biological target: T1, BtuCD-F (BtuCD with BtuF D141C), ATPase site (Escherichia coli, UniProt P06611, C180S); conditions: 2 mM ATP, 10 mM MgCl2, pH 7.5, 30 °C; BtuCD WT with BtuF D141C
T1 construct: gene btuD

[2] = biological target: BtuCDcys (cysteine mutant of the vitamin B12 ABC importer BtuCD: BtuC Q111C/W115L, cys-less BtuC and BtuD), reconstituted in liposomes (Escherichia coli) (UniProt P06609)
[3] = biological target: BtuCDcys (cysteine mutant of the vitamin B12 ABC importer BtuCD: BtuC Q111C/W115L, cys-less BtuC and BtuD), reconstituted in liposomes (Escherichia coli) (UniProt P06609); test: single-molecule fluorescence intensity change (TIRF microscopy); BtuCDcys labelled with Alexa Fluor 555 in 100-nm proteoliposomes (empty lumen, no ATP) tethered to glass by biotin-streptavidin; unlabelled BtuF added to the outside; 50 mM KPi, 200 mM KCl, pH 7.5; room temperature

Row | Molecule | NADH-coupled PK/LDH ATPase assay in proteoliposomes [1] | fraction of inside-out complexes that respond to ATP by a decrease of the Alexa Fluor 555 fluorescence of BtuCDcys (corrected for orientation; unlabelled BtuF in the lumen) [2] | fraction of liposomes in which the Alexa Fluor 555 fluorescence of BtuCDcys decreased upon addition of 2 mM ATP and 10 mM Mg2+ on the outside (unlabelled BtuF in the lumen; no events without BtuF) [2] | percent of right-side-out complexes with an increase in fluorescence upon addition of BtuF [3] | percent of traces with an increase in fluorescence upon addition of BtuF [3]
1 | Nc1ncnc2c1ncn2[C@@H]1O[C@H](COP(=O)(O)OP(=O)(O)OP(=O)(O)O)[C@@H](O)[C@H]1O [ATP] | ATPase rate of various BtuCD-F mutants with or without fluorescent label reconstituted in liposomes | – | – | – | –
2 | BtuF D141C (periplasmic vitamin B12-binding protein, cys-less, signal peptide removed) (from UniProt P37028 23-266) (natural protein) | – | 18% | 8% | 82% | 45%

From PMC5698293, “Single-molecule visualization of conformational changes and substrate transport in the vitamin B12 ABC importer BtuCD-F” (Nature Communications, 2017)
